Assay results reported in patent US20230192861A1 (ABL BIO, published 2023).

T1: human B7-H3 expressed on the surface of human cancer cell lines (human, UniProt Q5ZPR3 29-534)
T1 construct: whole, on cells; also called cell surface expression B7-H3
T1 sequence (looked up): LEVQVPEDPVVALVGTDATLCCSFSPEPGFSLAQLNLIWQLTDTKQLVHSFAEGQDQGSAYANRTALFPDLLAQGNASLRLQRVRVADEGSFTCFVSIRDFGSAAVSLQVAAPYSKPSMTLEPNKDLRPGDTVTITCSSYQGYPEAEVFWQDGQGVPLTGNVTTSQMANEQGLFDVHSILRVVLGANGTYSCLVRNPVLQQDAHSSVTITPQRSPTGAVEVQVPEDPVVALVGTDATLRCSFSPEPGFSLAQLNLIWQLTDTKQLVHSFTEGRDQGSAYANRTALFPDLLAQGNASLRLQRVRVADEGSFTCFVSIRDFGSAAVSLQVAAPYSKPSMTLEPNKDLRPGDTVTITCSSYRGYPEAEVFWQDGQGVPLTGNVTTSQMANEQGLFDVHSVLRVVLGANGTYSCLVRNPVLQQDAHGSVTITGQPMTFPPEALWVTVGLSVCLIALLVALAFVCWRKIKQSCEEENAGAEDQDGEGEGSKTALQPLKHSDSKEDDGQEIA


Tests used:
[1] = target: PD-L1 (Biacore, Example 1.6) (UniProt Q9NZQ7 19-238, limits assumed); assay: Biacore
[2] = target: T2, PD-L1 expressed on RKO cells (human, UniProt Q9NZQ7 19-290); assay: FACS on RKO cells (express both B7-H3 and PD-L1), FITC anti-human IgG
T2 construct: whole, on cells; RKO cells carry both PD-L1 and B7-H3; also called PD-L1 expressed on cell surface

[3] = target: T2, PD-L1 expressed on RKO cells; assay: as above; remark: listed apart in the source
[4] = target: T2, PD-L1 expressed on RKO cells; assay: FACS on RKO cells (express both B7-H3 and PD-L1), FITC anti-human IgG; the signal is not split between the two targets
[5] = target: T1, human B7-H3 expressed on the surface of …; assay: as above
[6] = target: T2, PD-L1 expressed on RKO cells; assay: FACS on RKO cells
Method: (§1) To evaluate the antigen binding property, 1+1 format bispecific antibodies were analyzed for its binding to mammalian expressed both B7-H3 and PD-L1 by FACS as compared to monospecific antibodies. Briefly, RKO cells (human colon carcinoma cell line) were incubated with antibodies. After wash by FACS buffer (1% BSA in PBS), the FITC-anti-human IgG antibody was added to each well and incubated at 4° C. for 1 hour. The MFI of FITC was evaluated by FACS Caliber. The results are described in FIG. 18.

[7] = target: T1, human B7-H3 expressed on the surface of …; assay: FACS on RKO cells
Method: as §1

Sequence of PD-L1 (Biacore, Example 1.6) (Q9NZQ7 19-238 limits assumed): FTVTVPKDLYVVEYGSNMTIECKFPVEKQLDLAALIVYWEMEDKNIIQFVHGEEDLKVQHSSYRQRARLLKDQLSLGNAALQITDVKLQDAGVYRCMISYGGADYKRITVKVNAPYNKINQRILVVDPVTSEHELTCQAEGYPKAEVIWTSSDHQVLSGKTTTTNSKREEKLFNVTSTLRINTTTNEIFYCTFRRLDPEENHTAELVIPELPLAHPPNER
T2 sequence (Q9NZQ7 19-290): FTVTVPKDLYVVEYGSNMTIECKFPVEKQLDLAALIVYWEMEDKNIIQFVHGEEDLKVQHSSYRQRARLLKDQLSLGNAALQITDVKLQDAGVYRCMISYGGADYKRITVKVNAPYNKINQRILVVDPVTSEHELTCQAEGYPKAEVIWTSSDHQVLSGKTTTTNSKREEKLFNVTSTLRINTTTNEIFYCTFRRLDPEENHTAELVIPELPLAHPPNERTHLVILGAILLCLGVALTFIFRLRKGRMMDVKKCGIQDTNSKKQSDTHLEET

Row | Kd [1] [nM] | koff [1] [s⁻¹] | kon [1] [M⁻¹ s⁻¹] | EC50 (read off the curve) [4] [nM] | EC50 (read off the curve) [5] [nM] | Binder | also measured
1 | 6.12 | 0.000436 | 71200 |  |  | H12 (antibody, V domains shown, Humanized anti-PD-L1 antibody; also called WT (H12); WT) VH: EVQLVESGGGLVQPGGSLRLSCAASGFTFSSYDMSWVRQAPGKSLEWVATISDAGGYIYYSDSVKGRFTISRDNAKNSLYLQMNSLRDEDTAVYICAREFGKRYALDYWGQGTTVTVSS VL: DIQMTQSPSSLSASVGDRVTITCKASQDVTPAVAWYQQKPGKAPKLLIYSTSSRYTGVPSRFSGSGSGTDFTFTISSLQPEDIATYYCQQHYTTPLTFGQGTKLEIK | 
2 | 4.25 | 0.000418 | 98300 |  |  | B6 (anti-PD-L1) (antibody, V domains shown, Engineered anti-PD-L1 clone) VH: EVQLVESGGGLVQPGGSLRLSCAASGFTFSSYDMSWVRQAPGKSLEWVATISDAGGYIYYRDSVKGRFTISRDNAKNSLYLQMNSLRDEDTAVYICARELPWRYALDYWGQGTTVTVSS VL: DIQMTQSPSSLSASVGDRVTITCKASQDVTPAVAWYQQKPGKAPKLLIYSTSSRYTGVPSRFSGSGSGTDFTFTISSLQPEDIATYYCQQHYTTPLTFGQGTKLEIK | EC50 (read off the curve) [2]: ~0.2 nM; EC50 (read off the curve) [3]: ~1 nM
3 |  |  |  | ~1 | ~1 | B6xC4I(2+2) (bispecific antibody, human IgG1, kappa, N297A, not the 1+1 format B6xC4I; also called ABLPNB.04; B6xC4I (2+2 format)) chain 1: not shown chain 2: DIQMTQSPSSLSASVGDRVTITCKASQDVTPAVAWYQQKPGKAPKLLIYSTSSRYTGVPSRFSGSGSGTDFTFTISSLQPEDIATYYCQQHYTTPLTFGQGTKLEIKRTVAAPSVFIFPPSDEQLKSGTASVVCLLNNFYPREAKVQWKVDNALQSGNSQESVTEQDSKDSTYSLSSTLTLSKADYEKHKVYACEVTHQGLSSPVTKSFNRGEC | 
4 |  |  |  | ~1 | ~1 | B6xB5(2+2) (bispecific antibody, human IgG1, kappa, N297A, also called ABLPNB.03; B6xB5 (2+2 format)) chain 1: not shown chain 2: DIQMTQSPSSLSASVGDRVTITCKASQDVTPAVAWYQQKPGKAPKLLIYSTSSRYTGVPSRFSGSGSGTDFTFTISSLQPEDIATYYCQQHYTTPLTFGQGTKLEIKRTVAAPSVFIFPPSDEQLKSGTASVVCLLNNFYPREAKVQWKVDNALQSGNSQESVTEQDSKDSTYSLSSTLTLSKADYEKHKVYACEVTHQGLSSPVTKSFNRGEC | 
5 |  |  |  |  |  | ABLPNB.09: bispecific antibody comprising the anti-PD-L1 B6 clone in (HC + LC) form and the anti-B7-H3 C4I clone in scFab-Fc form (bispecific antibody, human IgG1, kappa, lambda, Human IgG1, knobs-into-hole; also called B6xC4I (1+1 format)) heavy: not shown light: DIQMTQSPSSLSASVGDRVTITCKASQDVTPAVAWYQQKPGKAPKLLIYSTSSRYTGVPSRFSGSGSGTDFTFTISSLQPEDIATYYCQQHYTTPLTFGQGTKLEIKRTVAAPSVFIFPPSDEQLKSGTASVVCLLNNFYPREAKVQWKVDNALQSGNSQESVTEQDSKDSTYSLSSTLTLSKADYEKHKVYACEVTHQGLSSPVTKSFNRGEC not shown | binding result [6]: binds; binding result [7]: binds
